# Paper PMC4156298, “Characterization of the PH1704 Protease from Pyrococcus horikoshii OT3 and the Critical Functions of Tyr120” (PLoS ONE, 2014)
# Substitutions are numbered along the chain they refer to. Names and notes keep the numbering of the source.
# B1: recombinant PH1704 protease from Pyrococcus horikoshii OT3 (enzyme, UniProt O59413 1-166, looked up)
# chain: MKVLFLTANEFEDVELIYPYHRLKEEGHEVYIASFERGTITGKHGYSVKVDLTFDKVNPEEFDALVLPGGRAPERVRLNEKAVSIARKMFSEGKPVASICHGPQILISAGVLRGRKGTSYPGIKDDMINAGVEWVDAEVVVDGNWVSSRVPADLYAWMREFVKLLK
# notes: PH1704 protease, Pyrococcus horikoshii OT3, gene amplified from genomic DNA with primers at the start and at the stop codon, cloned NdeI/BamHI into pET-15b; The tag is known from detection with an anti-His tag antibody; also called WT; source: E. coli BL21 (DE3), purified (heat incubation at 80°C, Sephacryl S-200); copies: 12
# B2: PH1704 protease (Pyrococcus horikoshii OT3; Y120S) (protein)
# chain: B1 chain with Y120S
# notes: full-length gene in pET-15b (NdeI/BamHI), His-tag (detected by anti-His western blot), E. coli BL21(DE3); heat step and Sephacryl S-200
# B3: PH1704 protease (Pyrococcus horikoshii OT3; Y120P) (protein)
# chain: B1 chain with Y120P
# notes: as for B2
# B4: PH1704 protease (Pyrococcus horikoshii OT3; Y120W) (protein)
# chain: B1 chain with Y120W
# notes: as for B2
# Molecular target: the molecule itself
# Assay: native gel or EMSA; non-denaturing PAGE (10% resolving gel, 5% stacking gel), Coomassie stain and anti-His western blot; size read against a high molecular weight protein marker
# Settings: not given
row,Protein,stoichiometry N
1,B1,12

# Substrate: Cc1cc(=O)oc2cc(NC(=O)[C@@H](N)CCCNC(=N)N)ccc12
# Assay: fluorescence of released amc, Hill equation fit
# Assay type: biochemical, Pyrococcus horikoshii
# Settings: 50 mM sodium phosphate pH 7.5, 358 K, 60 min, aminopeptidase, 85.0 °C
# Text: fluorescence of released amc, Hill equation fit on PH1704 protease
Protein,Km,kcat,kcat/Km
B1,12 ± 0.65 µM,0.0108 ± 0.000833 s⁻¹,867 ± 133 M⁻¹ s⁻¹
B2,9.0 ± 0.43 µM,0.00245 ± 0.000167 s⁻¹,400 ± 66.7 M⁻¹ s⁻¹
B3,11.3 ± 0.59 µM,0.0728 ± 0.002 s⁻¹,6630 ± 417 M⁻¹ s⁻¹
B4,20.6 ± 0.77 µM,0.02 ± 0.00117 s⁻¹,1100 ± 83.3 M⁻¹ s⁻¹
